Results taken from patent US20100056764A1 (Novo Nordisk, published 2010).
Where “and” joins values, the source holds several entries; their conditions need not be identical. Equal entries are not always repeated. Where two headings read alike, the source gives them in different places.

B1: 21F2, fully human anti-hNKG2D monoclonal antibody, recombinantly expressed as IgG4 isotype (antibody, V domains shown)
VH: EVQLVQSGAEVKEPGESLKISCKNSGYSFTNYWVGWVRQMPGKGLEWMGIIYPGDSDTRYSPSFQGQVTISADKSINTAYLQWSSLKASDTAMYYCGRLTMFRGIIIGYFDYWGQGTLVTVSS
VL: EIVLTQSPATLSLSPGERATLSCRASQSVSSYLAWYQQKPGQAPRLLIYDASNRATGIPARFSGSGSGTDFTLTISSLEPEDFAVYYCQQRSNWPWTFGQGTKVEIKR
notes: also called 21F2 IgG4; 21F2 (IgG4)
B2: MS, fully human anti-hNKG2D monoclonal antibody, recombinantly expressed as IgG4 isotype (antibody, V domains shown)
VH: QVHLQESGPGLVKPSETLSLTCTVSDDSISSYYWSWIRQPPGKGLEWIGHISYSGSANYNPSLKSRVTISVDTSKNQFSLKLSSVTAADTAVYYCANWDDAFNIWGQGTMVTVSS
VL: not shown
notes: also called MS IgG4; MS (IgG4)

Tests used:
[1] = molecular target: T1, human NKG2D (hNKG2D) on the cell surface (human, UniProt P26718 1-216); test: cell-based or functional assay
T1 chain: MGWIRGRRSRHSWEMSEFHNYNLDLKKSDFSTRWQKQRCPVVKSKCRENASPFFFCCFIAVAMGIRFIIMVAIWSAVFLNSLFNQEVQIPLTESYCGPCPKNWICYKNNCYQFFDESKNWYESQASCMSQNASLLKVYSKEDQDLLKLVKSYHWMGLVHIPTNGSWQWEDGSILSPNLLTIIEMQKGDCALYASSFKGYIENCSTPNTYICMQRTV

[2] = molecular target: T2, cynomolgous monkey NKG2D on NK, CD8+ T and gamma-delta T cells (cynomolgous monkey (Macaca fascicularis), UniProt P61252 1-216); test: flow cytometry, cynomolgous NK cells in PBMC, anti-human IgG4 detection
T2 construct: whole, on cells; Target on cynomolgous PBMC and whole blood cells; also called cynomologous NKG2D; cyno NKG2D
T2 sequence (looked up): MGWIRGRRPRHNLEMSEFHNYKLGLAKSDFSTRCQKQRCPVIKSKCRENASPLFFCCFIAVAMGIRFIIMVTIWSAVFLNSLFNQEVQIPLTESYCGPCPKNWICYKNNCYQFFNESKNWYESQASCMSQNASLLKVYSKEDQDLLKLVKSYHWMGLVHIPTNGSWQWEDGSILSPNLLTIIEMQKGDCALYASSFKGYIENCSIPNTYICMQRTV
Protocol: (§1) Briefly, incubation with antibody was performed at 4° C. for 30 min followed by washing, then directly labelled secondary anti-hIgG4 antibody was added and incubated for 30 min at 4° C. along with antibodies specific for the various cell populations of interest, CD8, CD4, NK and γδ-T cells, then the cells were washed twice in PBS with 2% FCS and the red blood cell lysed. The cells were then analyzed by flow cytometry and binding to the different cell populations assessed.

[3] = molecular target: T2, cynomolgous monkey NKG2D on NK, CD8+ T …; test: flow cytometry, CD8 T cells; reference is 21F2 on human cells
Protocol: as §1

[4] = molecular target: T2, cynomolgous monkey NKG2D on NK, CD8+ T …; test: flow cytometry, cynomolgous gamma-delta T cells (Gd) in PBMC, anti-human IgG4 detection
Protocol: as §1

[5] = molecular target: T2, cynomolgous monkey NKG2D on NK, CD8+ T …; test: flow cytometry, gamma-delta T cells (Gd); reference is 21F2 on human cells
Protocol: as §1

[6] = molecular target: T1, human NKG2D (hNKG2D) on the cell surface; test: flow cytometry, human gamma-delta T cells (Gd) in PBMC, anti-human IgG4 detection
Protocol: as §1

[7] = molecular target: T2, cynomolgous monkey NKG2D on NK, CD8+ T …; test: flow cytometry, NK cells; reference is 21F2 on human cells
Protocol: as §1

[8] = molecular target: T3, recombinant NKG2D-Fc protein (R&D Systems), immobilized on a Biacore CM5 chip (human, UniProt P26718 78-216); test: SPR (Biacore), NKG2D-Fc immobilized on CM5 chip at 400 RU, antibody in solution, Langmuir fit
T3 construct: also called NKG2D-hFc; hFc-NKG2D; not shown: Fc portion of the purchased fusion protein
T3 sequence: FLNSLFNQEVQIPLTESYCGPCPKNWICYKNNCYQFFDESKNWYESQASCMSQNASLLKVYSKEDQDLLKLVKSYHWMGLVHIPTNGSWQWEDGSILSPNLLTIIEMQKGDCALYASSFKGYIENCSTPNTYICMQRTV
Protocol: Surface plasmon resonance measurements were performed on a Biacore 1000 upgrade apparatus (Biacore GE Healthcare; Biacore Upgrade CA0396) at 25° C. In all Biacore experiments HBS-EP buffer (Biacore GE Healthcare; BR-1001-88) served as running buffer and sensorgrams were analyzed with Biaevaluation 4.1 software.
Protein immobilisation. […] Recombinant NKG2D-Fc proteins were immobilized covalently to carboxyl groups in the dextran layer on a Sensor Chip CM5 (Biacore GE Healthcare; BR-1000-14). The sensor chip surface was activated with EDC/NHS (N-ethyl-N′-(3-dimethylaminopropyl)carbodiimidehydrochloride and N-hydroxysuccinimide (Biacore GE Healthcare; BR-1000-50)). […] Deactivation of the remaining activated groups was performed using 100 mM ethanolamine pH 8 (Biacore GE Healthcare; BR-1000-50).
[…] The resulting sensorgrams were analysed by global fitting using the Langmuir model. The dissociation constant (KD) was calculated as KD=kd/ka.

[9] = molecular target: T1, human NKG2D (hNKG2D) on the cell surface; test: flow cytometry, human CD8 T cells in PBMC, anti-human IgG4 detection
Protocol: as §1

[10] = molecular target: T2, cynomolgous monkey NKG2D on NK, CD8+ T …; test: flow cytometry, cynomolgous CD8 T cells in PBMC, anti-human IgG4 detection
Protocol: as §1

[11] = molecular target: T1, human NKG2D (hNKG2D) on the cell surface; test: flow cytometry blocking assay on NKG2D/DAP10-expressing BaF/3 cells: pre-incubation with the antibody, then 1 µg MICA-mFc; y axis % remaining MICA-Fc binding
Protocol: (§2) Flow cytometry assays—MICA blockade. […] The cells were then analysed on a B&D FACSArray flow cytometer. The degree of reduction of MICA binding by preincubation was analysed as MFI (mean fluorescence intensity) of binding with pre-incubation in % of binding of MICA without preincubation.

[12] = molecular target: T1, human NKG2D (hNKG2D) on the cell surface; test: flow cytometry, dose-response on NKG2D- and DAP10-expressing BaF/3 cells
[13] = molecular target: T1, human NKG2D (hNKG2D) on the cell surface; test: flow cytometry, human NK cells in PBMC, anti-human IgG4 detection
Protocol: as §1

[14] = molecular target: T1, human NKG2D (hNKG2D) on the cell surface; test: flow cytometry, NKG2D/DAP10 BaF/3 cells pre-incubated with antibody, then 1 µg MICA-mFc (competitor)
Protocol: as §2

[15] = molecular target: T1, human NKG2D (hNKG2D) on the cell surface; test: as above
Protocol: as §2

Binder | EC50 (µg/ml), inhibition of NK cell killing of ULPB3-expressing target cells (51Cr release) [1] [µg/mL] | EC50 [2] [µg/mL] | relative EC50, cynomolgous to human cells (%) [3] [%] | EC50 [4] [µg/mL] | relative EC50, cynomolgous to human cells (%) [5] [%] | EC50 [6] [µg/mL] | relative EC50, cynomolgous to human cells (%) [7] [%] | Kd [8] [pM] | koff [8] [s⁻¹] | kon [8] [M⁻¹ s⁻¹] | EC50 [9] [µg/mL] | EC50 [10] [µg/mL] | IC50 (read off the curve) [11] [pM] | EC50 [12] | EC50 [13] [µg/mL] | Full blockade of 1 µg MICA-Fc (antibody concentration) [14] [µg/mL] | IC50 [14] [µg/mL] | IC50 [15] [pM]
B1 | 0.021 | 0.0475 | 71.9 | 0.0464 | 81.1 | 0.0572 | 66.7 | 77.9 | 0.000144 | 1.85e+06 | 0.0605 | 0.0435 | ~4 | 0.033 µg/mL and 0.023 nM | 0.0712 | 0.16 | 0.0063 | 4.8
B2 |  |  |  |  |  |  |  |  |  |  |  |  | ~2 |  |  |  |  | 
